This assay addresses MSLN-Fc2 (Mesothelin-antibody Fc fusion protein) (human). The experiment in a line: SPR.

Regarding “Muc16 SEA11 module, uncleaved (with the Siderocalin fusion partner) (domain or fragment)”, the Kd was over 10000 nM. “Muc16 SEA10 module, uncleaved (with the Siderocalin fusion partner) (domain or fragment)” gave a Kd of 899 nM. That is a sub-micromolar value.

The record behind these values is PMC11316652.
